{"source": "paper PMC10300302", "about": "(Cell Insight, 2023)", "molecular_target": "T1, GST-Sirt1 (human, UniProt Q96EB6 1-747)", "T1 sequence (looked up)": "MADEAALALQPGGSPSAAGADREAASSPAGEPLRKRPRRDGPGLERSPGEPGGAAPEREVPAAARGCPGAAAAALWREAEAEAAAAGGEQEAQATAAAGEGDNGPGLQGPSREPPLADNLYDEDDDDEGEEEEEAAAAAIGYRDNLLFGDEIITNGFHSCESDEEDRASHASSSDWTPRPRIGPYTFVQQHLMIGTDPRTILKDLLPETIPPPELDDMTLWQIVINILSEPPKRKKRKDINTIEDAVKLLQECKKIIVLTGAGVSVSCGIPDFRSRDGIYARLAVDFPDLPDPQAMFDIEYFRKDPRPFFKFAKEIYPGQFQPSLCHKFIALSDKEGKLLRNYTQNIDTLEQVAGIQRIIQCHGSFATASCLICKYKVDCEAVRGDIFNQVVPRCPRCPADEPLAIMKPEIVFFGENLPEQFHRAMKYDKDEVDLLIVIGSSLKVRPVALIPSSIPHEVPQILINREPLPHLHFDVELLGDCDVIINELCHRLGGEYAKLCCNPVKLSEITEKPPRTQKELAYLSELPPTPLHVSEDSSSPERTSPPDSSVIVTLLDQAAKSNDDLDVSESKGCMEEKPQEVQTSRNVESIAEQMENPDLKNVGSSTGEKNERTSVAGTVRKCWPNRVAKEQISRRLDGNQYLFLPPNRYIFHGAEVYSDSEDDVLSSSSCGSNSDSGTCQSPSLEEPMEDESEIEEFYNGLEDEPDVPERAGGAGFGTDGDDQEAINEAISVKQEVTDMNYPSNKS", "experiment": "pull-down"}
{"binder": "MBP-CHCHD2-His (CHCHD2-isoform2) (natural protein, human, UniProt Q9Y6H1 1-151, looked up) MPRGSRSRTSRMAPPASRAPQMRAAPRPAPVAQPPAAAPPSAVGSSAAAPRQPGLMAQMATTAAGVAVGSAVGHTLGHAITGGFSGGSNAEPARPDITYQEPQGTQPAQQQQPCLYEIKQFLECAQNQGDIKLCEGFNEVLKQCRLANGLA", "values": [{"measurement": "binding result", "result": "binds"}]}
